Legend:
[1] = biological target: T1, human FOLR1 endogenously expressed on tumor cell lines (human, UniProt P15328 25-234); test: flow cytometry on IGROV-1 cells (FOLR1 high) at 37 °C, FITC anti-human IgG detection
T1 construct: whole, on cells; also called FOLR1-positive tumor cell lines; FOLR1+ target cells
Outline: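 Cells in PBS with 2% h.i. FCS and 0.1% sodium azide, 0.1-0.5×10⁶ per well, were incubated 40-50 min with serial antibody dilutions, then washed with ice-cold buffer. Median fluorescence intensity of >1×10⁴ viable cells was determined by flow cytometry.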

[2] = biological target: T2, CD16A endogenously expressed on primary human NK cells (human, UniProt P08637 17-254); test: flow cytometry on primary human NK cells, biotinylated antibody, 37 C, without IgG, mean of 4
Procedure: (§1) 4° C., and resuspended in 50 μL/well of diluted antibody constructs. […] After 40-50 minutes' incubation at 37° C., cells were washed 3-times with ice-cold FACS buffer. […] After the final incubation step, cells were washed 2-times with ice-cold FACS buffer, and the cell pellet was resuspended in 50 μL FACS buffer. Fluorescence intensity of >1×10⁴ viable cells was analyzed by flow cytometry and the median fluorescence intensity (MFI) was determined for each sample.
(§2) Equilibrium dissociation constants (KD) of antibody binding were calculated by plotting MFI values and fitting a non-linear regression model for one-site binding to hyperbolic dose-response curves using GraphPad Prism.

[3] = biological target: T1, human FOLR1 endogenously expressed on …; test: flow cytometry on NCI-H2110 cells, 37 C, one-site fit of MFI, mean
Procedure: (§3) Cells were collected and centrifuged at 400×g, 5 min, 4° C. Cell pellets were resuspended in FACS buffer (PBS (Invitrogen, cat.: 392-0434) containing 2% h.i. FCS (Invitrogen, cat.: 10500-064), and 0.1% sodium azide (Sigma, cat.: S8032)) at 1-5×10⁶ cells/mL. 100 μL/well of the cell suspension were transferred into U-shaped, 96-well micro plates (0.1-0.5×10⁶ cells per well), cells were pelleted at 400×g, 5 min, 4° C., and resuspended in 100 μL/well of serial dilutions of the indicated antibodies in FACS buffer. After 40-50 min incubation at 37° C., cells were washed 3-times with ice-cold FACS buffer. […] After the final incubation step, cells were washed 2-times with ice-cold FACS buffer, and the cell pellet was resuspended in 100 μL FACS buffer. Fluorescence intensities of >1×10⁴ viable cells were analyzed by flow cytometry and the median fluorescence intensity (MFI) was determined for each sample.
(§4) Equilibrium dissociation constants (KD) of antibody binding, mean and standard deviation (SD) were calculated by plotting MFI values and fitting a non-linear regression model for one-site binding to hyperbolic dose-response curves using GraphPad Prism for Windows (v9; GraphPad Software; La Jolla California USA).
(§5) Specific antibody binding capacity (SABC) as a marker for FOLR1 expression level on cells was determined on all tumor cell lines using QIFIKIT.

[4] = biological target: T2, CD16A endogenously expressed on primary …; test: flow cytometry on primary human NK cells, biotinylated antibody, 37 C, with 10 mg/mL polyclonal human IgG as competitor, mean of 4
Procedure: as §1, §2

[5] = biological target: T1, human FOLR1 endogenously expressed on …; test: flow cytometry on OVCAR-3 cells, 37 C, one-site fit of MFI, mean
Procedure: as §3, §4, §5

[6] = biological target: T1, human FOLR1 endogenously expressed on …; test: cell-based or functional assay
[7] = biological target: T1, human FOLR1 endogenously expressed on …; test: cell-based or functional assay; remark: listed apart in the source
[8] = biological target: T2, CD16A endogenously expressed on primary …; test: flow cytometry on primary human NK cells at 37 °C, biotinylated antibody, streptavidin-FITC, without polyclonal human IgG
Procedure: (§6) Frozen NK cells were thawed, and viability was determined with trypan blue (Sigma-Aldrich, cat.: T8154). Cells have been centrifuged at 400×g, 5 min, 4° C. Cell pellets were resuspended in FACS buffer PBS (Invitrogen, cat.: 392-0434) containing 2% h.i. FCS (Invitrogen, cat.: 10500-064), and 0.1% sodium azide (Sigma, cat.: S8032) at 2×10⁶ cells/mL. 100 μL/well of the cell suspension were transferred into U-shaped 96 well plates, cells were pelleted at 400×g, 5 min. 4° C., and resuspended in 50 μL/well of diluted antibody constructs. […] After 40-50 minutes' incubation at 37° C., cells were washed 3-times with ice-cold FACS buffer. […] After the final incubation step, cells were washed 2-times with ice-cold FACS buffer, and the cell pellet was resuspended in 50 μL FACS buffer. Fluorescence intensity of >1×10⁴ viable cells was analyzed by flow cytometry and the median fluorescence intensity (MFI) was determined for each sample.

[9] = biological target: T1, human FOLR1 endogenously expressed on …; test: flow cytometry on HCC-827 cells, 37 C, one-site fit of MFI, mean
Procedure: as §3, §4, §5

[10] = biological target: T2, CD16A endogenously expressed on primary …; test: flow cytometry on primary human NK cells, with against without 10 mg/mL polyclonal human IgG
Procedure: as §1, §2

[11] = biological target: T2, CD16A endogenously expressed on primary …; test: flow cytometry on primary human NK cells at 37 °C, biotinylated antibody, streptavidin-FITC, in the presence of 10 mg/mL polyclonal human IgG (competitor)
Procedure: as §6

[12] = biological target: T1, human FOLR1 endogenously expressed on …; test: cell-based or functional assay; remark: listed apart in the source
[13] = biological target: T1, human FOLR1 endogenously expressed on …; test: flow cytometry on OVCAR-3 cells (FOLR1 medium) at 37 °C, FITC anti-human IgG detection
Procedure: as §3

T1 sequence (P15328 25-234): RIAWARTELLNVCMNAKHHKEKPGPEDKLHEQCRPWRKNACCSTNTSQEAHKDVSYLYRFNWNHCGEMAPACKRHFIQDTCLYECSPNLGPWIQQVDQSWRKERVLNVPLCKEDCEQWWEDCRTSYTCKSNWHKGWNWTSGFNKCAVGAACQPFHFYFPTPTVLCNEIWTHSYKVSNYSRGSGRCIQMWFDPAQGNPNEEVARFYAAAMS
T2 sequence (P08637 17-254 limits assumed): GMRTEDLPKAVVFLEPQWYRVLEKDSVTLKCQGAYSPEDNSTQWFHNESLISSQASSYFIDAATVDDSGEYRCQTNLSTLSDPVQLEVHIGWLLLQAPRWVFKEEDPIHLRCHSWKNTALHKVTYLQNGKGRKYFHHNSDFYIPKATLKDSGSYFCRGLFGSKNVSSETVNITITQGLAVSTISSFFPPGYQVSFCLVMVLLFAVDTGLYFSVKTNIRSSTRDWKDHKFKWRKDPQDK

B1: scFv-IgAb_387 (FOLR1_1×CD16a3) (bispecific antibody)
heavy: EVQLVESGGGVVQPGRSLRLSCSASGFTFSGYGLSWVRQAPGKGLEWVAMISSGGSYTYYADSVKGRFAISRDNAKNTLFLQMDSLRPEDTGVYFCARHGDDPAWFAYWGQGTPVTVSSASTKGPSVFPLAPSSKSTSGGTAALGCLVKDYFPEPVTVSWNSGALTSGVHTFPAVLQSSGLYSLSSVVTVPSSSLGTQTYICNVNHKPSNTKVDKKVEPKSCDKTHTCPPCPAPEFEGGPSVFLFPPKPKDTLMISRTPEVTCVVVAVSHEDPEVKFNWYVDGVEVHNAKTKPREEQYNSTYRVVSVLTVLHQDWLNGKEYKCKVSNKALPAPIEKTISKAKGQPREPQVYTLPPSREEMTKNQVSLTCLVKGFYPSDIAVEWESNGQPENNYKTTPPVLDSDGSFFLYSKLTVDKSRWQQGNVFSCSVMHEALHNHYTQKSLSLSPGGGGGSGGGGSGGGGSGGGGSGGGGSGGGGSSYELTQPLSVSVALGQTARITCGGNNIGSKSVHWYQQKPGQAPVLVIYQDKKRPSGIPERFSGSNSGNTATLTISRAQAGDEADYYCQVWDDYIVLFGCGTKLTVLGGSGGSGGSGGSGGSGGSGGSQVQLVQSGAEVKKPGASVKVSCKASGYTFTNYYMQWVRQAPGQCLEWMGIINPSGGVTSYAQKFQGRVTMTRDTSTSTVYMELSSLRSEDTAVYYCARGSAYYYDFADYWGQGTLVTVSSG
light: DIQLTQSPSSLSASVGDRVTITCSVSSSISSNNLHWYQQKPGKAPKPWIYGTSNLASGVPSRFSGSGSGTDYTFTISSLQPEDIATYYCQQWSSYPYMYTFGQGTKVEIKRTVAAPSVFIFPPSDEQLKSGTASVVCLLNNFYPREAKVQWKVDNALQSGNSQESVTEQDSKDSTYSLSSTLTLSKADYEKHKVYACEVTHQGLSSPVTKSFNRGEC
modifications: Chemically biotinylated (NHS-PEG4-biotin) in Example 22 only.
notes: Tetravalent bispecific scFv-IgAb; also called FOLR1×CD16A scFv-IgAb_387; FOLR1/CD16A scFv-IgAb_387; copies: 2 + 2
- EC50 (read off the curve) [1]: ~3 nM
- Kd [2]: 4.3 nM
- Kd [3]: 2.5 nM
- Kd [4]: 23.1 nM
- Kd [5]: 1.7 nM
- EC50 [pM] of ADCC, 4 h calcein release, NK cells E:T 5:1, IGROV-1 cells [6]: 1 pM
- EC50 [pM] of ADCC, A2780 cells [6]: 5.5 pM
- EC50 [pM] of ADCC, HCC-827 cells [6]: 2.8 pM
- EC50 [pM] of ADCC, MDA-MB-231 cells [6]: 6.5 pM
- EC50 [pM] of ADCC, NCI-H2110 cells [6]: 0.8 pM
- EC50 [pM] of ADCC, OVCAR-3 cells [6]: 1.1 pM
- fold-improvement in efficacy vs IgAb_335, ADCC, A2780 cells [6]: 2.9 fold
- fold-improvement in efficacy vs IgAb_335, ADCC, HCC-827 cells [6]: 1.9 fold
- fold-improvement in efficacy vs IgAb_335, ADCC, IGROV-1 cells [6]: 0.9 fold
- fold-improvement in efficacy vs IgAb_335, ADCC, MDA-MB-231 cells [6]: 2.1 fold
- fold-improvement in efficacy vs IgAb_335, ADCC, NCI-H2110 cells [6]: 1.2 fold
- fold-improvement in efficacy vs IgAb_335, ADCC, OVCAR-3 cells [6]: 1.4 fold
- fold-improvement in potency vs IgAb_335, ADCC, A2780 cells [6]: 593 fold
- fold-improvement in potency vs IgAb_335, ADCC, HCC-827 cells [6]: 30.8 fold
- fold-improvement in potency vs IgAb_335, ADCC, IGROV-1 cells [6]: 15.1 fold
- fold-improvement in potency vs IgAb_335, ADCC, MDA-MB-231 cells [6]: 54 fold
- fold-improvement in potency vs IgAb_335, ADCC, NCI-H2110 cells [6]: 34.4 fold
- fold-improvement in potency vs IgAb_335, ADCC, OVCAR-3 cells [6]: 40.4 fold
- EC50 [nM] of ADCP, DK-MG cells [7]: 0.1 nM
- EC50 [nM] of ADCP, HCC-78 cells [7]: 17.8 nM
- EC50 [nM] of ADCP, HeLa cells [7]: 0.16 nM
- Phagocytosis [%], 4 h ADCP, DK-MG cells [7]: 17.6%
- Phagocytosis [%], 4 h ADCP, HCC-78 cells [7]: 26%
- EC50 (read off the curve) [8]: ~4 nM
- Kd [9]: 2.7 nM
- fold loss in KD induced by IgG [10]: 5.3 fold
- EC50 (read off the curve) [11]: ~20 nM
- EC50 of ADCC, 4 h calcein release, NK cells, HCC-827 cells [12]: 0.006 nM
- EC50 of ADCC, 4 h calcein release, NK cells, OVCAR-3 cells [12]: 0.0008 nM
- EC50 (read off the curve) [13]: ~2 nM
